Test results: US7390625B2, “Apoptosis-associated protein and use thereof” (Takeda Pharmaceutical Company Limited, priority 2002, dated 2008)

B1: CFP-ABP1: fusion protein of ABP1 with CFP at the N-terminal (protein)
chain: MRPLDIVELAEPEEVEVLEPEEDFEQFLLPVINEMREDIASLTREHGRAYLRNRSKLWEMDNMLIQIKTQVEASEESALNHLQNPGDAAEGRAAKRCEKAEEKAKEIAKMAEMLVELVRRIEKSESS
modifications: left off: large carriers
notes: fusion protein of ABP1 with CFP at the N-terminal
B2: ABP1: ASK1-binding protein of 127 amino acids encoded by gene PGR1 (SEQ ID NO:2); Myc-tagged in PAE-ABP1 cells (protein, listed as Homo sapiens)
chain: B1 chain
modifications: Myc tag
notes: Myc-tagged in PAE-ABP1 cells

Columns and labels:
ASK1 [1] = target: T1, ASK1 (Homo sapiens, UniProt Q99683); experiment: Co-immunoprecipitation of ABP1 and ASK1 co-expressed in HEK293 cells; format: binding
T1 construct: Myc; expressed in transfected cells; host or cells: HEK293
T1 sequence (Q99683 1-1374): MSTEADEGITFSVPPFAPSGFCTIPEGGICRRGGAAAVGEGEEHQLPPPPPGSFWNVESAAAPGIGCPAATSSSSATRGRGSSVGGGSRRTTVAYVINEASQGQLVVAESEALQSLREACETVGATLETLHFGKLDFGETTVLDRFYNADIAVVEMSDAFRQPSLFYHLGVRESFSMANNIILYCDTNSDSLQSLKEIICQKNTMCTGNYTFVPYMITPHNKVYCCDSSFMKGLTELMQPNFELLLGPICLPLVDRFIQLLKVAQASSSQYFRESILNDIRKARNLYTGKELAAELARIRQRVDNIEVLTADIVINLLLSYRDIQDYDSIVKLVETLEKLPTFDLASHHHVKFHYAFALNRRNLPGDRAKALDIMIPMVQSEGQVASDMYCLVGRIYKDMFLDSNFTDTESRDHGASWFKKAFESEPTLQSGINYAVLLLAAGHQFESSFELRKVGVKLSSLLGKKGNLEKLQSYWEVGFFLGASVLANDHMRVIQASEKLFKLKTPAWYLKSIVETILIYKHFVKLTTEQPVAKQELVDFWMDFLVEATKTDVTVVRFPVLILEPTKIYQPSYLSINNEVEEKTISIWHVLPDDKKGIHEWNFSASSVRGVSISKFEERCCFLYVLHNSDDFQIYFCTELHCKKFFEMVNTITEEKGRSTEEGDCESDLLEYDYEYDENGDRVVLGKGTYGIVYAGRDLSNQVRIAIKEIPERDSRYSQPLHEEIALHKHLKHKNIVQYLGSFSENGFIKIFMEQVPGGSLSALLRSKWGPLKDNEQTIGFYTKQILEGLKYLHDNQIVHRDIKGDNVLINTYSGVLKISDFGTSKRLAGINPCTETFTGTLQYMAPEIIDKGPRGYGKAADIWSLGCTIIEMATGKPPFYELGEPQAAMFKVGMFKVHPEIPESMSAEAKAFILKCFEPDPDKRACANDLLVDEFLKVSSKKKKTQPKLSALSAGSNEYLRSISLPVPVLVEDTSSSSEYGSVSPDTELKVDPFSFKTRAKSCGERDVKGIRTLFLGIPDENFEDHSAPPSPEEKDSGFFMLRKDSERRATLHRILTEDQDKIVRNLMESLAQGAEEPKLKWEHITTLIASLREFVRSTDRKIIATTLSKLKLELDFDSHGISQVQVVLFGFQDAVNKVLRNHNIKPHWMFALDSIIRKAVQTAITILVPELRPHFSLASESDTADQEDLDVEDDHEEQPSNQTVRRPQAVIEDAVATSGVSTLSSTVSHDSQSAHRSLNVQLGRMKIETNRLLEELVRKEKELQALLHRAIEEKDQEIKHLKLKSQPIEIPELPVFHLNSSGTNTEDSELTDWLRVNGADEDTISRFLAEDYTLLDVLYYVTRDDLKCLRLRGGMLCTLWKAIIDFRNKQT
Protocol: FIGS. 4A-B show the results of binding experiments of ABP1 and ASK1. FIG. 4A: HEK293 cells were transfected with Flag-ABP1 and the Myc-ASK1 plasmid, the cells were recovered after 24 hours, immunoprecipitation with an anti-Flag antibody was conducted, and immunoblot analysis was conducted using an anti-Myc antibody. FIG. 4B: HEK293 cells were transfected with Flag-ASK1 and the CFP-ABP1 plasmid, the cells were recovered after 24 hours, immunoprecipitation with an anti-Flag antibody was conducted, and immunoblot analysis was conducted using an anti-GFP antibody. Note that CFP is a variant of GFP and can be recognized by an anti-GFP antibody. For both FIGS. 4A and B, the two right lanes show the results obtained with H2O2 treatment (0.5 mM, 1 hour). […] IP stands for immunoprecipitation, and IB stands for immunoblot.
Two fusion proteins, i.e., Flag-ABP1 and Myc-ASK1, were co-expressed in HEK293 cells. […] The antibodies used were anti-Flag antibody (described above) and anti-Myc antibody (Clone 9E10, Calbiochem). This binding was enhanced by treatment with H2O2, which is ASK1 activation factor. […] The antibodies used were anti-Flag antibody (described above) and anti-GFP antibody (Medical & Biological Laboratories CO.).

HeLa cells = experiment: Cell death assay in HeLa cells transiently expressing CFP fusion proteins; format: cell-based
Protocol: FIGS. 6A-B show the induction of cell death by ABP1 in HeLa cells. FIG. 6A: Fluorescence photomicrographs at 36 hours after HeLa cells were transfected with CFP or the CFP-ABP1 plasmid (upper panel) and differential interference photomicrographs for the same fields (lower panel) are shown. FIG. 6B: The ratio (%) of cell death at 36 hours after transfection is shown.
FIGS. 10A-B show the induction of cell death by an ABP1-deficient variant. FIG. 10A: A schematic diagram of the ABP1-deficient variant is shown. […] FIG. 10B: The ratio (%) of cell death at 36 hours after transfection in cells introduced with the ABP1-deficient variant is shown.
• (1) To examine the intracellular localization and function of ABP1, HeLa cells were transfected with the CFP-ABP1 plasmid [prepared by subcloning ABP1 cDNA prepared by PCR into pECFP-C1 (Clontech)], which was also used in the immunoprecipitation experiment, and which expresses a fusion protein of ABP1 with CFP at the N-terminal-[transfection conducted using FuGENE6 (Roche Diagnostics K.K) as directed in the instruction manual thereof] to allow the transient expression of the protein, and CFP fluorescence was examined over time using a fluorescence microscope. […] This calculation was made for CFP-positive cells.
As described above, ABP1 has none of the functional domains of existing apoptosis-related factors. […]

ASK1 [2] = experiment: Immunoblot with anti-phosphorylated ASK1 antibody in PAE-ABP1 cells; format: cell-based, porcine; details: 12 hours after tetracycline removal
Source text: (§1) FIGS. 11A-B show the activation of ASK1, JNK, and p38 by ABP1. FIG. 11A: PAE-ABP1 cells were cultivated in the absence of tetracycline, the activation of endogenous JNK and p38 was examined by immunoblot analysis using each anti-phosphorylated protein antibody. FIG. 11B: PAE-ABP1 cells were cultivated in the absence of tetracycline, the activation of endogenous ASK1 was examined by immunoblot analysis using an anti-phosphorylated protein antibody. IB stands for immunoblot.
(§2) The activation of JNK and p38 during induction of the expression of ABP1 was investigated using respective anti-phosphorylated protein antibodies using PAE-ABP1 cells. The antibodies used were an anti-phosphorylated JNK antibody (Cell Signaling), an anti-phosphorylated p38 antibody (Cell Signaling), and an anti-phosphorylated ASK1 antibody (Tobiume et al., EMBO Rep., 2, 222-228, 2001). The cells were lysed using a lysis buffer (described above) in the same manner as Example 4, the lysate was centrifuged, the supernatant was recovered and reacted with an anti-Myc antibody (Clone 9E10, Calbiochem), Protein A-sepharose 4B (Zymed Laboratories) was added, incubation was conducted for 30 minutes, the reaction mixture was washed with the lysis buffer three times, an SDS sample buffer (described above) was added, and the same procedure as the immunoblotting method was followed.

caspase-3 = experiment: Caspase-3 activity (DEVD-AFC fluorometric assay) in PAE-ABP1 cells; format: cell-based, porcine; details: absence of tetracycline, around the time of cell death
Protocol: FIGS. 9A-B show the caspase dependency of cell death by ABP1. FIG. 9A: PAE-ABP1 cells were cultivated in the absence of tetracycline, and caspase-3 activity was measured after 0, 12, 24, and 36 hours. The results are shown as relative values with the value in the presence of tetracycline taken as 1. FIG. 9B: PAE-ABP1 cells were treated with zVAD-fmk (50 μM) simultaneously with removal of tetracycline, and the ratio (%) of dead cells was quantified. Cell death assay was conducted at 18 hours after removal of tetracycline. Tet stands for tetracycline.
The same was also confirmed in TUNEL staining of PAE-ABP1 cells. • (4) DNA fragmentation during apoptosis normally occurs subsequent to caspase activation. […] The measurement was conducted using a CPP32/caspase-3 fluorometric protease assay kit (MBL) with the synthetic fluorescence peptide DEVD-7-amino-4-trifluoromethyl coumarin (AFC) as a substrate. The fluorescence intensity from the liberated AFC was measured at an excitation wavelength of 360 nm and a fluorescence wavelength of 530 nm using a fluorescence spectrophotometer. Each sample was assayed twice. The results are shown as relative values with the value in the presence of tetracycline taken as 1.

PAE-ABP1 cells [3] = experiment: DNA fragmentation (agarose gel electrophoresis) in PAE-ABP1 cells; format: cell-based, porcine; details: after removal of tetracycline
Protocol: PAE-ABP1 cells were examined for DNA fragmentation at each time after removal of tetracycline by agarose gel electrophoresis (upper panel). At both ends are molecular weight markers (M), with their sizes shown at the right end.
PAE-ABPl cells (2×10^6 cells) were lysed in 200 μl of lysis buffer [20 mM Tris-HCl (pH 7.5), 10 mM EDTA, 0.5% Triton X-100]. the lysate was centrifuged, and the supematant was recovered and treated with 0.2 mg/mi proteinase K at 420° C for 1 hour. Subsequently, DNA was purified by the phenol-chloroform extraction method and the ethanol precipitation method, this was lysed again in a TE buffer containing 0.2 mg/ml ribonuclease A (10mM Tris-HCl, 1mM EDTA), the lysate was electrophoresed on 2% agarose gel, stained with ethidium bromide, and the migration pattern was photographed.

p38 = experiment: Immunoblot with anti-phosphorylated p38 antibody in PAE-ABP1 cells; format: cell-based, porcine; details: 12 hours after tetracycline removal
Source text: as §1, §2

PAE-ABP1 cells [4] = experiment: Cell death assay in PAE-ABP1 cells after removal of tetracycline; format: cell-based, porcine; details: 48 hours after removal of tetracycline (Myc-ABP1 expressed)
Protocol: FIGS. 7A-B show the induction of cell death by ABP1 in PAE-ABP1 cells. FIG. 7A: Phase contrast photomicrographs at 36 hours after cultivation of PAE-ABP1 cells in the presence (+) and absence (−) of tetracycline (Tet) are shown. FIG. 7B: The ratio (%) of cell death from cultivation in the presence of tetracycline (O hour) and at 24 hours and 48 hours after removal of tetracycline.
FIGS. 9A-B show the caspase dependency of cell death by ABP1. FIG. 9A: PAE-ABP1 cells were cultivated in the absence of tetracycline, and caspase-3 activity was measured after 0, 12, 24, and 36 hours. The results are shown as relative values with the value in the presence of tetracycline taken as 1. FIG. 9B: PAE-ABP1 cells were treated with zVAD-fmk (50 μM) simultaneously with removal of tetracycline, and the ratio (%) of dead cells was quantified. Cell death assay was conducted at 18 hours after removal of tetracycline. […]
When these cells were cultured in the absence of tetracycline, cell death was induced with the expression of the ABP1 protein, as in the transient expression of the ABP1 protein in HeLa cells (FIG. 7A). The ratio of dead cells to all cells (the ratio of cells showing a morphological sign of cell death to all cells was determined under a microscope; the results were shown as the mean for three visual fields) was determined to be about 55% at 48 hours after removal of tetracycline (FIG. 7B).

JNK = experiment: Immunoblot with anti-phosphorylated JNK antibody in PAE-ABP1 cells; format: cell-based, porcine; details: 12 hours after tetracycline removal
Source text: as §1, §2

| Molecule | effect of H2O2 treatment on binding of ABP1 and ASK1 (ASK1 [1]; H2O2 treatment (0.5 mM, 1 hour)) | binding of ABP1 and ASK1 (co-immunoprecipitation) (ASK1 [1]; immunoprecipitation with anti-Flag antibody, immunoblot) | ratio of cell death among cells expressing the fusion protein (HeLa cells; 36 hours after transfection) | time after transfection at which signs of cell death began (HeLa cells; detachment from the culture plate, membrane blebbing) | activation of endogenous ASK1 (ASK1 [2]) | caspase-3 activity (caspase-3) | DNA fragmentation (PAE-ABP1 cells [3]) | activation of endogenous p38 (p38) | ratio of dead cells to all cells (PAE-ABP1 cells [4]) | activation of endogenous JNK (JNK) |
| --- | --- | --- | --- | --- | --- | --- | --- | --- | --- | --- |
| B1 | also enhanced | binding of the two proteins was confirmed | about 70% | around 24 hours |  |  |  |  |  |  |
| B2 |  |  |  |  | activation of ASK1 was observed | decreased | formed a DNA ladder | observed | about 55% | observed |
